Legend:
[1] = test system: CD8+ TIL infiltration in B16 tumor; test: Immunofluorescence analysis of CD8+ TIL infiltration in tumor; format: in vivo, C57BL/6 mice; conditions: B16 tumor-bearing mice
Excerpt: Systemic Immunotherapeutic Combination Therapy (for FIG. 10, 11, 12)
72 male 6-8 weeks old C57BL/6 mice were subcutaneously (s.c.) inoculated on their back of the ribs with 2×10^6 B16 cells, and then monitored daily for tumor growth. These tumor-bearing animals were randomly numbered and then divided into 9 groups depended on the random number. Indicated groups were subjected to OVs (H101, 4×10^9 VPs) therapy i.t. and/or GM-CSF s.c. and/or PD-L1 mab (eBioscience, Cat#16-5982-85) i.p. or PBS (pH 7.4) only s.c. at indicated time points. After day 13, all animals were sacrificed and analyzed. Grouping and experiment design are illustrated in FIG. 17.
Immunofluorescence Analysis of CD8^+ TIL Infiltration in Tumor Using Systemic Immunotherapeutic Combination Therapy (for FIG. 12)
The level of CD8^+ TIL infiltration in tumor was determined by immunofluorescence staining. […] After the treatment with antifade mounting medium, fluorescence signals were detected under fluorescence microscope (BX43, OLYMPUS). Fluorescence images were analyzed using Image-Pro Plus 6.0 software and the histogram was made by GraphPad Prism 5 software and p<0.05 was considered statistically significant.

CD11b+ DC in spleen = test: Flow cytometric analysis of GM-CSF induced expansion of DC in B16 melanoma cell murine model; format: in vivo, C57BL/6 mice; conditions: s.c.
Excerpt: Animal Model (for FIGS. 5-11)
The male immunocompetent C57BL/6 mice were purchased from Shanghai Experimental Animal Center (Shanghhai, China) and maintained in the animal facility at Tongji University (Shanghai, China) according to the animal research committee's guidelines of Tongji University. To establish the tumor-bearing animal model, the male immunocompetent C57BL/6 mice 6-8 weeks old, were subcutaneously (s.c.) inoculated on their back of the ribs with 2×10^6 B16 cells, and then monitored daily for tumor growth. After 6 days (when the tumors grew up to a mean tumor volume of around 70-100 mm^3), these tumor-bearing animals were randomly numbered and then divided into groups depended on the random number. Tumor volume was measured with a caliper each three days and calculated using the following formula: [L×W^2]/2 (L=length of tumor; W=width of tumor). […]
Briefly, mice were killed, and spleens were removed into cold culture medium and processed immediately. […] All cells from all incubation periods were pooled and counted. […]
63 male 6-8 weeks old C57BL/6 mice were subcutaneously (s.c.) inoculated on their back of the ribs with 2×10^6 B16 cells, and then monitored daily for tumor growth. […] After another 1.5, 2.5, 3.5 and 4.5 days, indicated groups were sacrificed and analyzed, respectively. […]

[2] = test system: Ly-6G+ DC precursors and CD11b+ DC in spleen; test: Flow cytometric analysis of GM-CSF induced expansion of DC and DC precursor in normal animals; format: in vivo; conditions: s.c., healthy C57BL/6 mice
Protocol: Spleen Tissue Dissociation (for FIG. 6-8)
Briefly, mice were killed, and spleens were removed into cold culture medium and processed immediately. Surrounding mouse tissue and fat were removed. The spleens were minced into 2-3 mm fragments, and then crushed in cold culture medium using a flat tail of syringe piston. The spleen fragments were mixed up and down several times using a 1.5 mL micropipette with a tip cut to a diameter adapted to tissue fragment size. After that, the fragments were filtered through a […] nylon mesh cell strainer (BD Biosciences, San Diego, Calif., USA). The released cells were centrifuged at 1200 RPM for 2 min and stored in cold culture medium with 30% (v/v) FCS at 4° C. All cells from all incubation periods were pooled and counted.
Flow Cytometric Analysis of GM-CSF Induced Expansion of DC and DC Precursorin Normal Animals (for FIG. 6, 7)
52 male 6-8 weeks old C57BL/6 mice were randomly numbered and then divided into 13 groups depended on the random number. 12 groups were subcutaneously (s.c.) administered murine GM-CSF (PeproTech, Cat#96-315-03-1000) 2 μg on their back of the ribs, single injection from day 1 to 12 respectively. The last group was control. After 13 days, all animals were sacrificed. […]

B1: murine GM-CSF: murine granulocyte-macrophage colony-stimulating factor (PeproTech, Cat#96-315-03-1000) (protein, UniProt P01587 18-141, looked up)
Granulocyte-macrophage …: APTRSPITVTRPWKHVEAIKEALNLLDDMPVTLNEEVEVVSNEFSFKKLTCVQTRLKIFEQGLRGNFTKLKGALNMTASYYQTYCPPTPETDCETQVTTYADFIDSLKTFLTDIPFECKKPGQK
CD8+ TIL infiltration in tumor [1]: induces medium CD8^+ TIL infiltration | CD11b+ DC in spleen (CD11b+ DC in spleen): induces up-regulation of CD11b^+ DC in spleen at Day 3.5 | CD11b+ DC in spleen [2]: induces expansion of CD11b^+ DC at day 2-4 | Ly-6G+ DC precursors in spleen [2]: induces expansion of Ly-6G^+ DC precursors at day 1
